From publication PMC9741242, “Insights into the Structure of the Highly Glycosylated Ffase from Rhodotorula dairenensis Enhance Its Biotechnological Potential” (International Journal of Molecular Sciences, 2022)

Assays:
[1] = molecular target: D188A-RdINVΔ21–139, truncated inactivated mutant of Rhodotorula dairenensis β-fructofuranosidase (Rhodotorula dairenensis CECT 1416); assay: crystal structure; D188A-RdINVΔ21–139, deglycosylated, complexes with fructose, sucrose or raffinose; PEG 3350, Bis-Tris pH 5.5; space group P2(1), four molecules in the asymmetric unit
[2] = molecular target: β-fructofuranosidase from Rhodotorula dairenensis (RdINV), wild type (Rhodotorula dairenensis CECT 1416); assay: crystal structure; wild-type RdINV, deglycosylated; 25% PEG 3350, 0.2 M ammonium acetate, 0.1 M Bis-Tris pH 5.5; space group C222(1), two molecules in the asymmetric unit

| stoichiometry N [1] | stoichiometry N [2] | Substance |
| --- | --- | --- |
| 2 | – | D188A-RdINVΔ21–139, truncated inactivated mutant of Rhodotorula dairenensis β-fructofuranosidase (enzyme) |
| – | 2 | β-fructofuranosidase from Rhodotorula dairenensis (RdINV), wild type (enzyme) |
